Measured values taken from PMC3089606, “The E. coli Anti-Sigma Factor Rsd: Studies on the Specificity and Regulation of Its Expression” (PLoS ONE, 2011).

Legend:
[1] = test system: RNA polymerase holoenzyme Esigma38 (Escherichia coli); assay: EMSA; conditions: 1 uM Rsd; binding buffer, salt, pH and temperature not given in the material; heparin competitor in NAP footprints
[2] = biological target: the molecule itself; assay: cross-linking; 3 µg Rsd with 3 µg σ^70, σ^38 or Rsd (or each protein alone), 30 minutes in 15 µl 50 mM HEPES pH 7.4, 5% glycerol, 0.1 mM EDTA, 0.1 mM DTT; 0.02% glutaraldehyde, room temperature 30 minutes; SDS gel, Coomassie staining
[3] = biological target: T1, RNA polymerase sigma factor σ^70 (E. coli, UniProt P00579 1-613); assay: as above; conditions: both partners purified
T1 construct: RNA polymerase sigma factor σ^70 (RpoD), E. coli; also called free σ^70; sigma D

[4] = biological target: T2, RNA polymerase sigma factor σ^38 (E. coli, UniProt P13445 1-330); assay: pull-down; biotinylated Rsd incubated with the protein of interest (molar ratios 1:1 or 1:3) for 1 hour in TGED buffer on ice, held on Streptavidine MicroBeads column, four washes, elution with SDS buffer; SDS gel, Coomassie and silver staining; conditions: both partners purified
T2 construct: stationary phase-specific sigma factor σ^38 (RpoS), E. coli; also called σ^s; RpoS

[5] = biological target: T1, RNA polymerase sigma factor σ^70; assay: as above; conditions: both partners purified

T1 sequence (P00579 whole entry): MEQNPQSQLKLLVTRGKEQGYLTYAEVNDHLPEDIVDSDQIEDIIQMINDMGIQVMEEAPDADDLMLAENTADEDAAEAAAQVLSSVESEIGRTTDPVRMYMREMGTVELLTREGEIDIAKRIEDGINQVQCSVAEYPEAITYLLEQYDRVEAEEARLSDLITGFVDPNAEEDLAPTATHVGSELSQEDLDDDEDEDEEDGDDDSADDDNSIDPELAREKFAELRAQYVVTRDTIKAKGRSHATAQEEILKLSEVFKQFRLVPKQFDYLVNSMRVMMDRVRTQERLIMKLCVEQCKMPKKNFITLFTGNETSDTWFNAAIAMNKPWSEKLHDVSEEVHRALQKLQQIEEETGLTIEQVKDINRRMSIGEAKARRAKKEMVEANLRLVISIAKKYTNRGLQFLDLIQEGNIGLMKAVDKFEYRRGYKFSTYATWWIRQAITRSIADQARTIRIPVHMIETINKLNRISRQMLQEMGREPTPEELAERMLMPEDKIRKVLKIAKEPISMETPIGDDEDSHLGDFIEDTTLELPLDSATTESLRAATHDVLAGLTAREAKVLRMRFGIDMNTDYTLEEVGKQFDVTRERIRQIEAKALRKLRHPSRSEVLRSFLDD
T2 sequence (P13445 whole entry): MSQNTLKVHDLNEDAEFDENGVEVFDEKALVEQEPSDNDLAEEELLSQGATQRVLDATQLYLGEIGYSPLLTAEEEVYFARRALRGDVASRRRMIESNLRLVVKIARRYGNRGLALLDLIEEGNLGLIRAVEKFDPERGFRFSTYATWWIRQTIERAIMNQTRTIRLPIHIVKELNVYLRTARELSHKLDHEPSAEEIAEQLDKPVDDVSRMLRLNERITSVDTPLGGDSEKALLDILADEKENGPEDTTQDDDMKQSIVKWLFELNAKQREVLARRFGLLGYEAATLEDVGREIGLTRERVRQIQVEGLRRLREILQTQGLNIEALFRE

## fic promoter fragment
[1]
  binding signal (% of complex remaining): 50

B1: Rsd (regulator of sigma D), native protein (natural protein, E. coli, UniProt P0AFX4 1-158, looked up)
chain: MLNQLDNLTERVRGSNKLVDRWLHVRKHLLVAYYNLVGIKPGKESYMRLNEKALDDFCQSLVDYLSAGHFSIYERILHKLEGNGQLARAAKIWPQLEANTQQIMDYYDSSLETAIDHDNYLEFQQVLSDIGEALEARFVLEDKLILLVLDAARVKHPA
notes: Rsd (regulator of sigma D), E. coli; No tag is mentioned; also called native Rsd; anti-sigma factor Rsd; source: E. coli BL21DE3pLysS/pUC18-Rsd, purified (DEAE-Sephadex A25, P11-phosphocellulose, NH4SO4 precipitation)
[2]
  stoichiometry N: 2
[3]
  binding result: binds

B2: Biotinylated Rsd (natural protein, E. coli, UniProt P0AFX4 1-158, looked up)
chain: MLNQLDNLTERVRGSNKLVDRWLHVRKHLLVAYYNLVGIKPGKESYMRLNEKALDDFCQSLVDYLSAGHFSIYERILHKLEGNGQLARAAKIWPQLEANTQQIMDYYDSSLETAIDHDNYLEFQQVLSDIGEALEARFVLEDKLILLVLDAARVKHPA
modifications: biotin (9 fold excess of Biotinyl-N-hydroxy-succinimide; modified residues not stated)
notes: Rsd (regulator of sigma D), E. coli; Held on Streptavidine MicroBeads through the biotin; also called Biotinylated-Rsd protein; immobilized Rsd; source: E. coli BL21DE3pLysS/pUC18-Rsd, purified, then biotinylated with Biotinyl-N-hydroxy-succinimide
[4]
  binding result: binds
[5]
  binding result: binds
